Assay [1] addresses T1, human CD3 (human, UniProt P07766 23-207). Kind of assay: cell-based or functional assay.
Assay [2] addresses T2, human CEA (human, UniProt P06731 35-702).
T2 sequence (looked up): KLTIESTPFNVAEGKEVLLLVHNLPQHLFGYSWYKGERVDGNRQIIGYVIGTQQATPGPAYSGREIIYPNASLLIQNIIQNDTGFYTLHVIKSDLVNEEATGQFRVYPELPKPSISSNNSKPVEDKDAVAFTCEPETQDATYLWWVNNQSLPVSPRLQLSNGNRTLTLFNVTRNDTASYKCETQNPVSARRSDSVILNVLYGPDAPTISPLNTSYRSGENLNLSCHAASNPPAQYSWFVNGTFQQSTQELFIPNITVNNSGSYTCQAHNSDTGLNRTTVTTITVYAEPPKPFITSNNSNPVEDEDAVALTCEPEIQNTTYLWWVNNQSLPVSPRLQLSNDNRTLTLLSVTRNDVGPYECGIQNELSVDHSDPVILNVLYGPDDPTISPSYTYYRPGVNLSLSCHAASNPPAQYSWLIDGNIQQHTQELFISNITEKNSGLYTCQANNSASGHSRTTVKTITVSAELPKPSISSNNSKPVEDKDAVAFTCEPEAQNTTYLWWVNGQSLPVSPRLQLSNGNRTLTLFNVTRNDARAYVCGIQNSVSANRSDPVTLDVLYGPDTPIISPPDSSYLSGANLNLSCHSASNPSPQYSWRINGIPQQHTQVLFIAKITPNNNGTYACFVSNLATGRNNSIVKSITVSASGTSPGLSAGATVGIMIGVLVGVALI
Nature of the assay: cell-based or functional assay.

Assay [3] addresses T2, human CEA. Kind of assay: cell-based or functional assay. The source holds these as a separate data set.
The target of assay [4] is T3, Cynomolgus monkey CD3 protein (cynomolgus monkey, UniProt Q95LI5 22-117).
T3 sequence (looked up): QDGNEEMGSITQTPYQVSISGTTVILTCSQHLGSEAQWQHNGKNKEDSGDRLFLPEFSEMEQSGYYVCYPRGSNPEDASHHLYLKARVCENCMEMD
Nature of the assay: ELISA on cynomolgus monkey CD3 protein, curve fit. (An ELISA detects its analyte on a solid surface through an enzyme-linked reagent.)

Assay [5] deals with T1, human CD3. Nature of the assay: cell-based or functional assay. This is another data set of the same source.

Substitutions are numbered along the chain they refer to. Read-outs that look alike come from different tables or passages of the source.

T1 sequence (P07766 23-207): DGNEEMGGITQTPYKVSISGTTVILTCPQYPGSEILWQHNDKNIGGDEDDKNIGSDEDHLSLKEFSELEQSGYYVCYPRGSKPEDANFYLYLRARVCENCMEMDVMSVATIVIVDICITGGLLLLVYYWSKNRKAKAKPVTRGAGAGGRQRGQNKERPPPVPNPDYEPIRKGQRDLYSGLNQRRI

B1: CEA/CD3OPT1a3b (bispecific antibody, V domains shown)
VH 1: EVQLVESGGGLVQPGGSLRLSCAASGFNIKDTYMHWVRQAPGKGLEWVARIDPAQGNTKYADSVKGRFTISADTSKNTAYLQMNSLRAEDTAVYYCAPFGYYVSDYAMAYWGQGTLVTVSS
VL 1: DIQLTQSPSSLSASVGDRVTITCRAGESVDIFGVGFLHWYQQKPGKAPKLLIYRASNLESGVPSRFSGSGSRTDFTLTISSLQPEDFATYYCQQTNEDPYTFGQGTKVEIK
VH 2: EVQLVESGGGLVKPGGSLKLSCAASGFTFSTYAMNWVRQAPGKGLEWVARIRSKYNNYATYYADSVKDRFTISRDDSKNTAYLQMNNLRTEDTAVYYCVRHGNWGNSYISYWAYWGQGTTVTVSS
VL 2: not shown
notes: Same format as m1; also called OPT SP34 1a3b; copies: 2 + 2 + 2 + 2
For the molecule B1, in the assay with human CD3 [1], the “NFAT-luciferase in Jurkat cells: Bottom” value was found to be 1600, the “NFAT-luciferase in Jurkat cells: LogEC50” value was -0.102, the “NFAT-luciferase in Jurkat cells: Span” value was 62800 and the “NFAT-luciferase in Jurkat cells: Top” value was determined as 64500. For the same molecule, in the assay with human CEA [2], the “lysis of LS-174T cells by PBMC: Bottom” value worked out at 12.1, the “lysis of LS-174T cells by PBMC: LogEC50” value was -2.69, the “lysis of LS-174T cells by PBMC: Span” value came out at 96.6 and the “lysis of LS-174T cells by PBMC: Top” value came out at 109. For the same molecule, in the assay with human CEA [3], the “lysis of KATO III cells by PBMC: Bottom” value stood at 64.6, the “lysis of KATO III cells by PBMC: LogEC50” value is -0.946, the “lysis of KATO III cells by PBMC: Span” value came out at 39.4 and the “lysis of KATO III cells by PBMC: Top” value came out at 104. In addition, in assay [4], the “Bottom (best-fit)” value was 0.00304, the LogEC50 is -1.84, the “Span (best-fit)” value worked out at 4.03 and the “Top (best-fit)” value came out at 4.03.

B2: CEA/CD3OPT1a3b2b2 (bispecific antibody)
chain 1: B1 VH 1
chain 2: B1 VL 1
chain 3: EVQLVESGGGLVKPGGSLKLSCAASGFTFSTYAMNWVRQAPGKGLEWVARIRSKYNNYATYFADSVKDRFTISRDDSKNTAYLQMNNLRTEDTAVYYCVRHGNWGNSYISYWAYWGQGTTVTVSSQSVLTQPPSVSAAPGQRVTISCSGSTGAVTSGYYPNWYQQLPGTAPRLLIGGTKFLAPGTPDRFSGSSKSTSAALAISGVQSEDEADYYCALWYSNRWVFGGGTKLTVLG
Turning to B2, in the assay with human CD3 [1], the “NFAT-luciferase in Jurkat cells: Bottom” value came out at 3450, the “NFAT-luciferase in Jurkat cells: LogEC50” value is -0.0275, the “NFAT-luciferase in Jurkat cells: Span” value is 2670 and the “NFAT-luciferase in Jurkat cells: Top” value amounted to 6120.

B3: CEA/CD3OPT1a3b2a (bispecific antibody, V domains shown)
VH 1: B1 VH 1
VL 1: B1 VL 1
VH 2: B1 VH 2 with K54N
VL 2: not shown
notes: Same format as m1; also called OPT SP34 1a3b2a; copies: 2 + 2 + 2 + 2
With B3, in the assay with human CD3 [1], the “NFAT-luciferase in Jurkat cells: Bottom” value came out at 3100, the “NFAT-luciferase in Jurkat cells: LogEC50” value was -0.27, the “NFAT-luciferase in Jurkat cells: Span” value was determined as 10700 and the “NFAT-luciferase in Jurkat cells: Top” value amounted to 13800. In the assay with human CEA [2], the “lysis of LS-174T cells by PBMC: Bottom” value was 11.3, the “lysis of LS-174T cells by PBMC: LogEC50” value was -1.92, the “lysis of LS-174T cells by PBMC: Span” value stood at 93.6 and the “lysis of LS-174T cells by PBMC: Top” value was 105. Besides, in the assay with human CEA [3], the “lysis of KATO III cells by PBMC: Bottom” value is 63.8, the “lysis of KATO III cells by PBMC: LogEC50” value is -0.332, the “lysis of KATO III cells by PBMC: Span” value came to 34.6 and the “lysis of KATO III cells by PBMC: Top” value was 98.5. Moreover, in assay [4], the “Bottom (best-fit)” value was 0.00337, the LogEC50 was -1.81, the “Span (best-fit)” value stood at 4.06 and the “Top (best-fit)” value was 4.06.

B4: CEA/CD3OPT3 (bispecific antibody, V domains shown)
VH 1: B1 VH 1
VL 1: B1 VL 1
VH 2: B1 VH 2 with S30N, T31K, N103Q
VL 2: not shown
For the molecule B4, in the assay with human CD3 [5], the “NFAT-luciferase in Jurkat cells: Bottom” value was determined as 119, the “NFAT-luciferase in Jurkat cells: LogEC50” value was -5.66, the “NFAT-luciferase in Jurkat cells: Span” value was -41.4 and the “NFAT-luciferase in Jurkat cells: Top” value was 78.

B5: CEA/CD3OPT2 (bispecific antibody, V domains shown)
VH 1: B1 VH 1
VL 1: B1 VL 1
VH 2: B1 VH 2 with S30N, T31K, K54N, Y61T, Y62F, W104F
VL 2: not shown
For the molecule B5, in the assay with human CD3 [5], the “NFAT-luciferase in Jurkat cells: Bottom” value is 88.9, the “NFAT-luciferase in Jurkat cells: LogEC50” value is -2.09, the “NFAT-luciferase in Jurkat cells: Span” value was -30.4 and the “NFAT-luciferase in Jurkat cells: Top” value is 58.5.
